B1: KIAA0774 (parent)
chain: FEDEVKRLGWQQQAELQELEERLQ

Variants of: B1
Assay: protein stability index of a GFP-peptide fusion (GPS, HEK-293T) (PSI 1-6); higher = more stable
Conditions: c terminus: a fixed tail appended
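Also: lentivirally expressed fusions sorted by FACS into six bins by GFP to DsRed ratio, PSI derived from sequencing read proportions per bin multiplied by bin number.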

Row | Variant | protein stability index
1 | FEDEVKRLGWQQQAELQELELRLQ | 4.71
2 | FEDEVKRLGWQQQAELQELEMRLQ | 4.32
3 | FEDEVKRLGWQQQAELQELENRLQ | 3.17
4 | FEDEVKRLGWQQQAELQELEPRLQ | 4.51
5 | FEDEVKRLGWQQQAELQELEQRLQ | 4.67
6 | FEDEVKRLGWQQQAELQELERRLQ | 4.46
7 | FEDEVKRLGWQQQAELQELESRLQ | 4.17
8 | FEDEVKRLGWQQQAELQELETRLQ | 4.69
9 | FEDEVKRLGWQQQAELQELEVRLQ | 4.14
10 | FEDEVKRLGWQQQAELQELEWRLQ | 2.91
11 | FEDEVKRLGWQQQAELQELEYRLQ | 3.88
12 | FEDEVKRLGWQQQAELQELEEALQ | 4.99
13 | FEDEVKRLGWQQQAELQELEECLQ | 4.48
14 | FEDEVKRLGWQQQAELQELEEDLQ | 5.9
15 | FEDEVKRLGWQQQAELQELEEELQ | 5.78
16 | FEDEVKRLGWQQQAELQELEEFLQ | 4.62
17 | FEDEVKRLGWQQQAELQELEEGLQ | 5.26
18 | FEDEVKRLGWQQQAELQELEEHLQ | 4.88
19 | FEDEVKRLGWQQQAELQELEEILQ | 4.06
20 | FEDEVKRLGWQQQAELQELEEKLQ | 3.85
21 | FEDEVKRLGWQQQAELQELEELLQ | 4.13
22 | FEDEVKRLGWQQQAELQELEEMLQ | 4.04
23 | FEDEVKRLGWQQQAELQELEENLQ | 5.69
24 | FEDEVKRLGWQQQAELQELEEPLQ | 5.33

Row | Variant | protein stability index
25 | FEDEVKRLGWQQQAELQELEEQLQ | 4.95
26 | FEDEVKRLGWQQQAELQELEESLQ | 5.01
27 | FEDEVKRLGWQQQAELQELEETLQ | 4.83
28 | FEDEVKRLGWQQQAELQELEEVLQ | 3.77
29 | FEDEVKRLGWQQQAELQELEEWLQ | 4.31
30 | FEDEVKRLGWQQQAELQELEEYLQ | 4.24
31 | FEDEVKRLGWQQQAELQELEERAQ | 4.08
32 | FEDEVKRLGWQQQAELQELEERCQ | 4.14
33 | FEDEVKRLGWQQQAELQELEERDQ | 5.21
34 | FEDEVKRLGWQQQAELQELEEREQ | 4.65
35 | FEDEVKRLGWQQQAELQELEERFQ | 4.09
36 | FEDEVKRLGWQQQAELQELEERGQ | 4.58
37 | FEDEVKRLGWQQQAELQELEERHQ | 4.53
38 | FEDEVKRLGWQQQAELQELEERIQ | 3.97
39 | FEDEVKRLGWQQQAELQELEERKQ | 4.16
40 | FEDEVKRLGWQQQAELQELEERMQ | 4.03
41 | FEDEVKRLGWQQQAELQELEERNQ | 4.42
42 | FEDEVKRLGWQQQAELQELEERPQ | 5.48
43 | FEDEVKRLGWQQQAELQELEERQQ | 4.05
44 | FEDEVKRLGWQQQAELQELEERRQ | 4.58
45 | FEDEVKRLGWQQQAELQELEERSQ | 4.91
46 | FEDEVKRLGWQQQAELQELEERTQ | 4.84
47 | FEDEVKRLGWQQQAELQELEERVQ | 4.65

— the supplement of paper PMC10567573
